Measured values from the nanobody polyreactivity screen of Harvey et al. (2022).

Assay: yeast display, Sf9 membrane polyspecificity reagent, FACS + sequencing; frameworks hold sequencing errors
Method in brief: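 After 36–48 hours of galactose induction, yeast (Saccharomyces cerevisiae BJ5465) displaying a synthetic nanobody library were stained at 4 °C for 1 hour with 10% biotinylated, detergent-solubilized Sf9 membrane reagent. Streptavidin microbeads enriched the stained cells before FACS sorting into low and high (top ~1%) gates on anti-HA and streptavidin fluorescence. Each clone's polyreactivity label reflects its gate of origin.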

Sequence	polyreactivity (PSR sort gate)
QVQLVESGGGLVQAGCSLRLICAASGLTFSRYTMGWYRQAPGKERELVAAISLSGGRTYYADSVKGRFTISRDNAKNTVYLQMNSLKPEDTAVYYCNARGTYHGQYYWGEGTQVTVSS	high polyreactivity
QVQLVESGGGLVQAGCSLRLICAASGSISYHNAKGWYRQAPAKEREWVAANSGDGDSTYYADSVKVRFTISRDNAKHTVYLQMNTLKPEDSAVYYSAAEPTVYFSDFVLFPSDFWGQGTQVTVSS	low polyreactivity
QVQLVESGGGLVQAGCSLRLSCAASGFIFRLYTMGWYRQAPGKERELVARITRGDSTIYADSVKGRFTISRDNAKNTVYLQMNSLKPEDTAVYYCAKLHRGLPYYSFYRGYYYWGQGTQVTVSS	low polyreactivity
QVQLVESGGGLVQAGCSLRLSCAASGFIFWENGLGWYRQAPGKERELVAAISSGGGRTYYADSVKGRFTISRDNAKHTVYLQMNSLKPEDTAVYYCNRARYYREFDFWGQGTQVTVSS	high polyreactivity
QVQLVESGGGLVQAGCSLRLSCAASGFIFWLYAMGWYRQAPGKERELVASINWSGGDTYYADSVKGRFTISRDNAKNTVYLQMNSLKPEDTAVYYCNAIVLDSKSSFDYWGQGTQVTVSS	low polyreactivity
QVQLVESGGGLVQAGCSLRLSCAASGFTFGSYAMGWYRQAPWKEREFVAAIRRSGSSTYYADSVKGRFTISRDNAKNTVYLQMNSLKPEDTAVYFCAADVYRRLRRYRYYYLGQGTQVTVSS	low polyreactivity
QVQLVESGGGLVQAGCSLRLSCAASGITFAWYAMGWYRQAPGKERELVAAIDDRGGSTYYADSVKGRFTISRDNAKNTVYLQMNSLKPEDTAVYYCNADTPSYEPYRLDYWGQGTQVTVSS	low polyreactivity
QVQLVESGGGLVQAGCSLRLSCAASGRIFPRNVMGWYRQAPGKERELVAAISSRGTRTYYADSVKGRFTISRDNAKNTVYLQMNSLKPEDTAVYYCAADGPYEGYDYWGLGTQVTVSS	high polyreactivity
QVQLVESGGGLVQAGCSLRLSCAASGRIFQTNVMGWYRQAPGKDRELVAAISYRGGTTYYADSVKGRFTISRDNAKNTVYLQMNSLKPEDPAVYYCAALHYRIRRTGMDYWGQGTQVTVSS	low polyreactivity
QVQLVESGGGLVQAGCSLRLSCAASGRIFTGNAMGWYRQAPGKERELVAAISRSGGRTYYADSVKGRFTISRDNAKNTVYLQMNSLKPEDTAVYYCAAAGYYHTYWGTMDYWGQGTQVTVSS	high polyreactivity
QVQLVESGGGLVQAGCSLRLSCAASGRIFVAITMGRYRQAPGKERELVAAITRGTNTYYADSVKGRFTISRDNAKNTVDLQMNSLKPEDSAVYYCAARLPYNAIGYYYWGHGTQVTVSS	low polyreactivity
QVQLVESGGGLVQAGCSLRLSCAASGRIFYSNVMGWYRQAPGKERELVAAISGRTGGTYYADSVKGRFTISRDTAKNTVYLQMNSLKPEDTAVYYCAARVIYYYGSGPYDYWGQGTQVTVSS	low polyreactivity
QVQLVESGGGLVQAGCSLRLSCAASGRTFAYYAMGWYRQAPGKERELVAAISSGGGSTYYADSVKGRFTISRDNAKNTVYLQMNSLKPEDTAVYYCAKERSYSRSGGTYYYWGQGTQVTVSS	high polyreactivity
QVQLVESGGGLVQAGCSLRLSCAASGRTFGGNAMGWYRQAPGKERELVAAISKSGGRTYYADSVKGRFTISRDNAKNTVYLQMNSLKPEDTAVYYCNKVLSVSQAGGFDYWGQGTQVTVSS	high polyreactivity
QVQLVESGGGLVQAGCSLRLSCAASGRTFSTYAMGWYRQAPGKERELVAAITRRGGSTYYADSVKRRFTISRDNAKNTVYLQINSLKPEDTAVYYCETYADRPPRTPDISYVSNFDYWGQGTQVTVSS	low polyreactivity
QVQLVESGGGLVQAGCSLRLSCAASGSIFTINAMGWYREAPGKERELVAAISFGGGSTYYADSVKGRFTISRDNAKITGYLQMNSLKREDTAVYYCAAEDWWGYDYWGQGNQVTVSS	high polyreactivity
QVQLVESGGGLVQAGCSLRLSCAASGSIFYRYAMGWYRQAPGKERELVAAISRSGGRTYYADSVKGRFTISRDNAKNTVYIQMNSLKPEDTAVYNCAAESTVGTDLGGDSWGQGTQVTVSS	high polyreactivity
QVQLVESGGGLVQAGCSLRLSCAASGSIFYYYAMGWYRQAPGKERELVAAIRRSGSTTYADSVKGRFTISRDNAKNTVYLQMNSLKPEETAVYYCNVYGYGTEYDYWGQGTLVTVSS	high polyreactivity
QVQLVESGGGLVQAGCSLRLSCAASGSNFGMYTMGWYRQAPGKESELVAAISGGGGSTYYADSVKGRFTISRDTAKNTVYVQMNSLKPEDSAVYYCAAVLDLSEWYDYWGQGTQVTVSS	low polyreactivity
QVQLVESGGGLVQAGCSLRLSCAASGSTFPYNSMGWYRQAPGKERELVAAITSSGRTNYADSVKGRFTISRDNAKNTVYLQMNSLKPEDTAVYYCAAARWYAHRVDYWGQGTQVTVSS	low polyreactivity
QVQLVESGGGLVQAGCSLRLSCASSGGIFSWYAMGRYRQAPGKEREFVAAISWRGGRTYYADSVKGRFTISRDNAKNTVYLQMNSLKPEDTAVYYCAVANRAGEDDYWGQGSQVTVSS	high polyreactivity
